Measurements: the supplement of paper PMC10065799, “High-throughput profiling of sequence recognition by tyrosine kinases and SH2 domains using bacterial peptide display” (eLife, 2023)

Molecular target: EPHB2 (UniProt P29323)
Test: phosphorylation enrichment, bacterial display (enrichment ratio); higher = better substrate or ligand; peptides without Tyr show the background
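Also: 11-residue human phosphosite peptides and single-mutation variants displayed on the E. coli surface, counted by deep sequencing, each peptide's frequency after selection divided by its frequency in the unselected input library; frequency after pTyr selection over input frequency; kinase dosed for 20-30% of maximal phosphorylation in three min.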

Chain of EPHB2 (P29323 whole entry, looked up): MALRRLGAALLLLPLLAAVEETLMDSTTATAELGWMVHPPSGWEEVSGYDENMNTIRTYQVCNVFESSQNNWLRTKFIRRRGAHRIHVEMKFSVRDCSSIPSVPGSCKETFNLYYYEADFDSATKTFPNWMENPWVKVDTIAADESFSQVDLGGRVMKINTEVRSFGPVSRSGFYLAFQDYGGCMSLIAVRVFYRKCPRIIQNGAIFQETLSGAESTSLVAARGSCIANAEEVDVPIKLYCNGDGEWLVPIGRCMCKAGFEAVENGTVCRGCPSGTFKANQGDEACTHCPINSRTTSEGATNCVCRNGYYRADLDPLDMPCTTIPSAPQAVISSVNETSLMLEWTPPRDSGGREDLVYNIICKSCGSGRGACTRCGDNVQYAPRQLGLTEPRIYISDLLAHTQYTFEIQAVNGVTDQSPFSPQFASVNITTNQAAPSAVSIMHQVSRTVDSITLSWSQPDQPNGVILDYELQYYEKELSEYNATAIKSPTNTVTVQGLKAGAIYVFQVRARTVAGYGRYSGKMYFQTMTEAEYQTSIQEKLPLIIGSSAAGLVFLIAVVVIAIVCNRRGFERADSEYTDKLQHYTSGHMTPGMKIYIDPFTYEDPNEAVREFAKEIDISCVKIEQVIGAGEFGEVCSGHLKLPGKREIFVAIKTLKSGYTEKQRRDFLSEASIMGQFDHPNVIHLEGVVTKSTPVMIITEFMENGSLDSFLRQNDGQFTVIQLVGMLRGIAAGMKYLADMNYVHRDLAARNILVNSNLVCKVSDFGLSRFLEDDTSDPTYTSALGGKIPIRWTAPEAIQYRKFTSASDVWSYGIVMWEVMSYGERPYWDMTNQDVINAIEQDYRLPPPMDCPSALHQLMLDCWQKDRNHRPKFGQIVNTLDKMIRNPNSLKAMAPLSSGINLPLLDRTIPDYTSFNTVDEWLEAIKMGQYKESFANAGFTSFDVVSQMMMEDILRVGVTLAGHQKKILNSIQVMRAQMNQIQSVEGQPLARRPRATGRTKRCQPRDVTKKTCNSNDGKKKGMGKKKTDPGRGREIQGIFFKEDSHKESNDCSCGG

Q: For FRARAYGFRGP [CHGA_Y381], which phosphorylation enrichment is on record?
A: 0.506

Q: Which phosphorylation enrichment does the source give for GRVYVYRLSEQ [ITGAE_Y551] here?
A: 0.471

Q: Which phosphorylation enrichment does the source give for SILTVYSKDNY [PANK2_Y400_A398T] here?
A: 0.407

Q: CTTIHYNYMCT [TP53_Y234_N239T] was tested. Which phosphorylation enrichment did it give?
A: 1.02

Q: TLLAFYMGNFS [GLB1_Y552_P549L] was tested. Which phosphorylation enrichment did it give?
A: 0.661

Q: Which phosphorylation enrichment does the source give for CTTILYNYMCN [TP53_Y234_H233L] here?
A: 0.766

Q: How did the phosphorylation enrichment turn out when AEYGLYRAMVR [VSX2_Y222_G223R] was run?
A: 3.62

Q: With RDSQIYAVDYE [MRPS34_Y34_L33I] as the sequence, how does the phosphorylation enrichment read?
A: 1.94

Q: How did the phosphorylation enrichment turn out when VKMLPYTEVTR [GDI1_Y93_L92P] was run?
A: 0.431

Q: With AGITAYQSCLQ [ADGRA2_Y377] as the sequence, how does the phosphorylation enrichment read?
A: 0.717

Q: With ALTDNYMFLVI [HAGH_Y61_YF] as the sequence, how does the phosphorylation enrichment read?
A: 6.12

Q: FASALYGQRRS [FGF11_Y162_R163G_YF] was tested. Which phosphorylation enrichment did it give?
A: 0.415

Q: With EGTATYAAAVL [JUP_Y644] as the sequence, how does the phosphorylation enrichment read?
A: 1.24

Q: Which phosphorylation enrichment does the source give for ITGNGYFFRVF [MYBPC3_Y1135_I1131T_YF] here?
A: 0.493

Q: KNKELYSDPFD [PDE10A_Y300_L303P] was tested. Which phosphorylation enrichment did it give?
A: 1.37

Q: With FDRREYSRFEK [ITGB7_Y758_YF] as the sequence, how does the phosphorylation enrichment read?
A: 0.519

Q: How did the phosphorylation enrichment turn out when RGESFYQDRMN [RARS_Y338] was run?
A: 0.392

Q: How did the phosphorylation enrichment turn out when KPPFSYNALIM [FOXG1_Y186] was run?
A: 0.488

Q: Which phosphorylation enrichment does the source give for QKMLDYLKEKK [RYR2_Y3780] here?
A: 0.345

Q: For QNAGDYYDLYG [PTPN11_Y62_T59A], which phosphorylation enrichment is on record?
A: 13.6

Q: With HILRVYSGVLP [PCNX4_Y999_G1000S] as the sequence, how does the phosphorylation enrichment read?
A: 0.651

Q: Which phosphorylation enrichment does the source give for SSSPTYPDLPF [GLI3_Y168] here?
A: 0.543

Q: For NTYEKYWLFYQ [GATM_Y103_P105L], which phosphorylation enrichment is on record?
A: 2.94

Q: With KPMDTYFDSTR [DYNC2H1_Y2230_YF] as the sequence, how does the phosphorylation enrichment read?
A: 0.517

Q: Which phosphorylation enrichment does the source give for RLEGVYRNNID [PTEN_Y46] here?
A: 0.578

Q: Which phosphorylation enrichment does the source give for DPNQQYYIAMD [TBX15_Y159_H156N] here?
A: 0.719

Q: With VDSLRYIYPKL [EIF2B3_Y92_A87V] as the sequence, how does the phosphorylation enrichment read?
A: 0.506

Q: How did the phosphorylation enrichment turn out when ALWFIYLHTRS [ENG_Y614_S615L_YF] was run?
A: 0.583

Q: FSNVLYRPRGA [TMIGD2_Y197_YF] was tested. Which phosphorylation enrichment did it give?
A: 0.526

Tested on: c-Src
Test: as above

Q: How did the phosphorylation enrichment turn out when FRARAYGFRGP [CHGA_Y381] was run?
A: 0.651

Q: GRVYVYRLSEQ [ITGAE_Y551] was tested. Which phosphorylation enrichment did it give?
A: 0.725

Q: For SILTVYSKDNY [PANK2_Y400_A398T], which phosphorylation enrichment is on record?
A: 0.538

Q: CTTIHYNYMCT [TP53_Y234_N239T] was tested. Which phosphorylation enrichment did it give?
A: 0.5

Q: With TLLAFYMGNFS [GLB1_Y552_P549L] as the sequence, how does the phosphorylation enrichment read?
A: 0.98

Q: With CTTILYNYMCN [TP53_Y234_H233L] as the sequence, how does the phosphorylation enrichment read?
A: 1.24

Q: Which phosphorylation enrichment does the source give for AEYGLYRAMVR [VSX2_Y222_G223R] here?
A: 6.94

Q: For RDSQIYAVDYE [MRPS34_Y34_L33I], which phosphorylation enrichment is on record?
A: 4.24

Q: How did the phosphorylation enrichment turn out when VKMLPYTEVTR [GDI1_Y93_L92P] was run?
A: 0.4

Q: Which phosphorylation enrichment does the source give for AGITAYQSCLQ [ADGRA2_Y377] here?
A: 0.518

Q: Which phosphorylation enrichment does the source give for ALTDNYMFLVI [HAGH_Y61_YF] here?
A: 0.733

Q: With FASALYGQRRS [FGF11_Y162_R163G_YF] as the sequence, how does the phosphorylation enrichment read?
A: 0.641

Q: With EGTATYAAAVL [JUP_Y644] as the sequence, how does the phosphorylation enrichment read?
A: 0.897

Q: How did the phosphorylation enrichment turn out when ITGNGYFFRVF [MYBPC3_Y1135_I1131T_YF] was run?
A: 0.31

Q: How did the phosphorylation enrichment turn out when KNKELYSDPFD [PDE10A_Y300_L303P] was run?
A: 0.629

Q: FDRREYSRFEK [ITGB7_Y758_YF] was tested. Which phosphorylation enrichment did it give?
A: 0.411

Q: How did the phosphorylation enrichment turn out when RGESFYQDRMN [RARS_Y338] was run?
A: 0.541

Q: For KPPFSYNALIM [FOXG1_Y186], which phosphorylation enrichment is on record?
A: 0.512

Q: With QKMLDYLKEKK [RYR2_Y3780] as the sequence, how does the phosphorylation enrichment read?
A: 0.513

Q: Which phosphorylation enrichment does the source give for QNAGDYYDLYG [PTPN11_Y62_T59A] here?
A: 4.65

Q: How did the phosphorylation enrichment turn out when HILRVYSGVLP [PCNX4_Y999_G1000S] was run?
A: 0.745

Q: With SSSPTYPDLPF [GLI3_Y168] as the sequence, how does the phosphorylation enrichment read?
A: 0.565

Q: NTYEKYWLFYQ [GATM_Y103_P105L] was tested. Which phosphorylation enrichment did it give?
A: 2.23

Q: Which phosphorylation enrichment does the source give for KPMDTYFDSTR [DYNC2H1_Y2230_YF] here?
A: 0.512

Q: For RLEGVYRNNID [PTEN_Y46], which phosphorylation enrichment is on record?
A: 0.561

Q: How did the phosphorylation enrichment turn out when DPNQQYYIAMD [TBX15_Y159_H156N] was run?
A: 0.812

Q: How did the phosphorylation enrichment turn out when VDSLRYIYPKL [EIF2B3_Y92_A87V] was run?
A: 0.424

Q: For ALWFIYLHTRS [ENG_Y614_S615L_YF], which phosphorylation enrichment is on record?
A: 0.411

Q: Which phosphorylation enrichment does the source give for FSNVLYRPRGA [TMIGD2_Y197_YF] here?
A: 0.477

Molecular target: Fyn (UniProt P06241)
Sequence (P06241 whole entry, looked up): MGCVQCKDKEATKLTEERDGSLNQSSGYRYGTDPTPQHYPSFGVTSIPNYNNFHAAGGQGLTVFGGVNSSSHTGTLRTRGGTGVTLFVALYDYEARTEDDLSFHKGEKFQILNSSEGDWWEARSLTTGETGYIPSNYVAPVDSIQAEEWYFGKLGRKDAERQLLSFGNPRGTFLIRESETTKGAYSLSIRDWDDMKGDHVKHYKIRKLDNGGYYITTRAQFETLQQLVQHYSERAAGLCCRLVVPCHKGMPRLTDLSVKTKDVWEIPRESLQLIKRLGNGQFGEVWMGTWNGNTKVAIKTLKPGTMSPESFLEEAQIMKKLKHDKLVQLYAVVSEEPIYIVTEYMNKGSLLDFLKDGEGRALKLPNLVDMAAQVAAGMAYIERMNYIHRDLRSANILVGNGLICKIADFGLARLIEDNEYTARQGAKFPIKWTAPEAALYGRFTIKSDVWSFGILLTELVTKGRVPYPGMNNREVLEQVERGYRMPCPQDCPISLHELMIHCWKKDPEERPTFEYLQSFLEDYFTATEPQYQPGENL
Test: as above

Q: FRARAYGFRGP [CHGA_Y381] was tested. Which phosphorylation enrichment did it give?
A: 0.676

Q: How did the phosphorylation enrichment turn out when GRVYVYRLSEQ [ITGAE_Y551] was run?
A: 0.568

Q: Which phosphorylation enrichment does the source give for SILTVYSKDNY [PANK2_Y400_A398T] here?
A: 0.442

Q: With CTTIHYNYMCT [TP53_Y234_N239T] as the sequence, how does the phosphorylation enrichment read?
A: 0.569

Q: For TLLAFYMGNFS [GLB1_Y552_P549L], which phosphorylation enrichment is on record?
A: 0.408

Q: With CTTILYNYMCN [TP53_Y234_H233L] as the sequence, how does the phosphorylation enrichment read?
A: 0.745

Q: AEYGLYRAMVR [VSX2_Y222_G223R] was tested. Which phosphorylation enrichment did it give?
A: 9.03

Q: How did the phosphorylation enrichment turn out when RDSQIYAVDYE [MRPS34_Y34_L33I] was run?
A: 7.43

Q: How did the phosphorylation enrichment turn out when VKMLPYTEVTR [GDI1_Y93_L92P] was run?
A: 0.368

Q: AGITAYQSCLQ [ADGRA2_Y377] was tested. Which phosphorylation enrichment did it give?
A: 0.633

Q: Which phosphorylation enrichment does the source give for ALTDNYMFLVI [HAGH_Y61_YF] here?
A: 0.615

Q: FASALYGQRRS [FGF11_Y162_R163G_YF] was tested. Which phosphorylation enrichment did it give?
A: 0.444

Q: Which phosphorylation enrichment does the source give for EGTATYAAAVL [JUP_Y644] here?
A: 0.858

Q: For ITGNGYFFRVF [MYBPC3_Y1135_I1131T_YF], which phosphorylation enrichment is on record?
A: 0.358

Q: KNKELYSDPFD [PDE10A_Y300_L303P] was tested. Which phosphorylation enrichment did it give?
A: 0.443

Q: FDRREYSRFEK [ITGB7_Y758_YF] was tested. Which phosphorylation enrichment did it give?
A: 0.331

Q: Which phosphorylation enrichment does the source give for RGESFYQDRMN [RARS_Y338] here?
A: 0.411

Q: With KPPFSYNALIM [FOXG1_Y186] as the sequence, how does the phosphorylation enrichment read?
A: 0.438

Q: How did the phosphorylation enrichment turn out when QKMLDYLKEKK [RYR2_Y3780] was run?
A: 0.542

Q: With QNAGDYYDLYG [PTPN11_Y62_T59A] as the sequence, how does the phosphorylation enrichment read?
A: 5.41

Q: With HILRVYSGVLP [PCNX4_Y999_G1000S] as the sequence, how does the phosphorylation enrichment read?
A: 1.1

Q: With SSSPTYPDLPF [GLI3_Y168] as the sequence, how does the phosphorylation enrichment read?
A: 0.568

Q: With NTYEKYWLFYQ [GATM_Y103_P105L] as the sequence, how does the phosphorylation enrichment read?
A: 1.5

Q: For KPMDTYFDSTR [DYNC2H1_Y2230_YF], which phosphorylation enrichment is on record?
A: 0.452

Q: For RLEGVYRNNID [PTEN_Y46], which phosphorylation enrichment is on record?
A: 0.675

Q: For DPNQQYYIAMD [TBX15_Y159_H156N], which phosphorylation enrichment is on record?
A: 0.566

Q: VDSLRYIYPKL [EIF2B3_Y92_A87V] was tested. Which phosphorylation enrichment did it give?
A: 0.48

Q: How did the phosphorylation enrichment turn out when ALWFIYLHTRS [ENG_Y614_S615L_YF] was run?
A: 0.433

Q: Which phosphorylation enrichment does the source give for FSNVLYRPRGA [TMIGD2_Y197_YF] here?
A: 0.437

Molecular target: Jak2 (UniProt O60674)
Sequence (O60674 whole entry, looked up): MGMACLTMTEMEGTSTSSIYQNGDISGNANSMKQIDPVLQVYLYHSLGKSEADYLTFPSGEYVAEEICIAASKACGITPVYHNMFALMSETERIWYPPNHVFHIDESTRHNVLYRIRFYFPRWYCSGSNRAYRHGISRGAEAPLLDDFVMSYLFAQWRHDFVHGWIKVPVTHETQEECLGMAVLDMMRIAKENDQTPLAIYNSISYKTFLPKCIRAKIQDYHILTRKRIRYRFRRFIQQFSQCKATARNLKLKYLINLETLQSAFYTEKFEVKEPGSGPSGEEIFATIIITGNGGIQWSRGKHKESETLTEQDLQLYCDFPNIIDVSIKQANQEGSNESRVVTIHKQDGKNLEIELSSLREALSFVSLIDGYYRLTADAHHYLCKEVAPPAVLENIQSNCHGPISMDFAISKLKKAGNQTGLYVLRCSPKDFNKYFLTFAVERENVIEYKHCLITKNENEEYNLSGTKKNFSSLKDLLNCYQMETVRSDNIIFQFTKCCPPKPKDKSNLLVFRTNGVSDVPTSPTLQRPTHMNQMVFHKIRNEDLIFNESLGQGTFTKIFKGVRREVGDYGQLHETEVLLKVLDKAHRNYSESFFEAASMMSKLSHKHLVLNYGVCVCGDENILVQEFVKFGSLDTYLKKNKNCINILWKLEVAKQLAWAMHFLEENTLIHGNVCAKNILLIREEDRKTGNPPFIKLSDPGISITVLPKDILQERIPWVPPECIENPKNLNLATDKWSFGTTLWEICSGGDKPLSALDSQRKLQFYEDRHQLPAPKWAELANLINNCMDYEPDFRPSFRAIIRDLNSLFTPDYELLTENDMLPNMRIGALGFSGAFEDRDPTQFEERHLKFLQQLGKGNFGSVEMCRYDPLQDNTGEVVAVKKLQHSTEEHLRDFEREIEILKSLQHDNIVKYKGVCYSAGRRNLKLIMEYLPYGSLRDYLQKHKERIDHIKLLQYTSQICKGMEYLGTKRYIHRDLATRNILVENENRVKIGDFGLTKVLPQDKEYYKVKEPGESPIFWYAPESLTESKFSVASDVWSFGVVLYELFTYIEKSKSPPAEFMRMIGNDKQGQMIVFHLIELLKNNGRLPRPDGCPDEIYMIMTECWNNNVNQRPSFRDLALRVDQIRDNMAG
Test: as above

Q: FRARAYGFRGP [CHGA_Y381] was tested. Which phosphorylation enrichment did it give?
A: 0.686

Q: GRVYVYRLSEQ [ITGAE_Y551] was tested. Which phosphorylation enrichment did it give?
A: 0.83

Q: How did the phosphorylation enrichment turn out when SILTVYSKDNY [PANK2_Y400_A398T] was run?
A: 0.715

Q: How did the phosphorylation enrichment turn out when CTTIHYNYMCT [TP53_Y234_N239T] was run?
A: 0.657

Q: How did the phosphorylation enrichment turn out when TLLAFYMGNFS [GLB1_Y552_P549L] was run?
A: 1.59

Q: For CTTILYNYMCN [TP53_Y234_H233L], which phosphorylation enrichment is on record?
A: 1.16

Q: Which phosphorylation enrichment does the source give for AEYGLYRAMVR [VSX2_Y222_G223R] here?
A: 0.75

Q: For RDSQIYAVDYE [MRPS34_Y34_L33I], which phosphorylation enrichment is on record?
A: 0.977

Q: Which phosphorylation enrichment does the source give for VKMLPYTEVTR [GDI1_Y93_L92P] here?
A: 0.573

Q: Which phosphorylation enrichment does the source give for AGITAYQSCLQ [ADGRA2_Y377] here?
A: 1.03

Q: With ALTDNYMFLVI [HAGH_Y61_YF] as the sequence, how does the phosphorylation enrichment read?
A: 1.49

Q: FASALYGQRRS [FGF11_Y162_R163G_YF] was tested. Which phosphorylation enrichment did it give?
A: 0.616

Q: EGTATYAAAVL [JUP_Y644] was tested. Which phosphorylation enrichment did it give?
A: 0.501

Q: Which phosphorylation enrichment does the source give for ITGNGYFFRVF [MYBPC3_Y1135_I1131T_YF] here?
A: 0.99

Q: KNKELYSDPFD [PDE10A_Y300_L303P] was tested. Which phosphorylation enrichment did it give?
A: 0.763

Q: For FDRREYSRFEK [ITGB7_Y758_YF], which phosphorylation enrichment is on record?
A: 0.577

Q: With RGESFYQDRMN [RARS_Y338] as the sequence, how does the phosphorylation enrichment read?
A: 0.899

Q: For KPPFSYNALIM [FOXG1_Y186], which phosphorylation enrichment is on record?
A: 0.632

Q: QKMLDYLKEKK [RYR2_Y3780] was tested. Which phosphorylation enrichment did it give?
A: 0.579

Q: With QNAGDYYDLYG [PTPN11_Y62_T59A] as the sequence, how does the phosphorylation enrichment read?
A: 3.1

Q: How did the phosphorylation enrichment turn out when HILRVYSGVLP [PCNX4_Y999_G1000S] was run?
A: 0.867

Q: Which phosphorylation enrichment does the source give for SSSPTYPDLPF [GLI3_Y168] here?
A: 0.91

Q: How did the phosphorylation enrichment turn out when NTYEKYWLFYQ [GATM_Y103_P105L] was run?
A: 1.18

Q: For KPMDTYFDSTR [DYNC2H1_Y2230_YF], which phosphorylation enrichment is on record?
A: 0.758

Q: How did the phosphorylation enrichment turn out when RLEGVYRNNID [PTEN_Y46] was run?
A: 0.751

Q: For DPNQQYYIAMD [TBX15_Y159_H156N], which phosphorylation enrichment is on record?
A: 0.959

Q: VDSLRYIYPKL [EIF2B3_Y92_A87V] was tested. Which phosphorylation enrichment did it give?
A: 0.733

Q: For ALWFIYLHTRS [ENG_Y614_S615L_YF], which phosphorylation enrichment is on record?
A: 1.13

Q: Which phosphorylation enrichment does the source give for FSNVLYRPRGA [TMIGD2_Y197_YF] here?
A: 0.478
